Biological target: T1, Sgo1^1–150-His6-MBP (X. laevis, UniProt Q4KLP8 1-150)
T1 sequence (looked up): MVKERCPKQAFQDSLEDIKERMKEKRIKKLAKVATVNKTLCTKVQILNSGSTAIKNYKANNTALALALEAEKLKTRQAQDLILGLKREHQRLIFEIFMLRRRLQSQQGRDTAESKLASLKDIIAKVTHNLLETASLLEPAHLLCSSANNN
Test: supernatant depletion

- Kd: 10 ± 1.6 µM
B1: GST-Borealin-2^216–296 (domain or fragment)
chain: not shown

Source: publication PMC7550704 (Molecular Biology of the Cell, 2020)
